Patent US20200164064A1 (Hoffmann-La Roche, published 2020)

Target: T1, Ac-PYY(PEG3-Dig) (N-terminal acetyl; Lys 2 side chain carries PEG3-digoxigenin (digoxigenin-3-carboxymethyl on 12-amino-4,7,10-trioxadodecanoic acid); Pqa at position 3; N-methyl-Arg at position 14; C-terminal amide)
T1 construct: also called DIG-PYY; Dig-PYY
T1 peptide: IKXRHYLNWVTRQXY
Experiment: size exclusion chromatography and SEC-MALS of the non-covalent complex
Experimental: After completion of the complexation reaction, the complexes were purified by size exclusion chromatography via a Superdex 200 26/60 GL column (320 ml) in 20 mM histidine, 140 mM NaCl, at pH 6.0 at a flow rate of 2.5 ml/min. […] Polypeptide and antibody were incubated for 1.5 hrs. at room temperature. The excess of polypeptide was removed by size exclusion chromatography via a Superose 6 10/300 GL column in 20 mM histidine, 140 mM NaCl, at pH 6.0 at a flow rate of 0.5 ml/min.
For SEC-MALS analysis, 100-500 μg of the respective sample was applied to a Superdex 200 10/300 GL size exclusion column with a flow rate of 0.25-0.5 ml/min with 1×PBS pH 7.4 as mobile phase. Light scattering was detected with a Wyatt miniDawn TREOS/QELS detector, the refractive index was measured with a Wyatt Optilab rEX-detector. Resulting data was analyzed using the software ASTRA (version 5.3.4.14).

B1: murine anti-digoxigenin antibody (hybridoma-derived) (antibody, mouse IgG1, V domains shown)
VH: EVQLVESGGGLVKPGGSLKLSCAVSGFTFSDYAMSWIRQTPENRLEWVASINIGATYAYYPDSVKGRFTISRDNAKNTLFLQMSSLGSEDTAMYYCARPGSPYEYDKAYYSMAYWGPGTSVTVSS
VL: DVQMTQSTSSLSASLGDRVTISCRASQDIKNYLNWYQQKPGGTVKLLIYYSSTLLSGVPSRFSGRGSGTDFSLTITNLEREDIATYFCQQSITLPPTFGGGTKLEIK
notes: also called murine hybridoma-derived antibody
B1: binds.
